The source of these data is publication PMC8038994, “RNA and DNA G-quadruplexes bind to human dicer and inhibit its activity”.

For one data set, the target named is T1, hDicer PPC cassette (Homo sapiens, UniProt Q9UPY3 753-1068).
T1 sequence: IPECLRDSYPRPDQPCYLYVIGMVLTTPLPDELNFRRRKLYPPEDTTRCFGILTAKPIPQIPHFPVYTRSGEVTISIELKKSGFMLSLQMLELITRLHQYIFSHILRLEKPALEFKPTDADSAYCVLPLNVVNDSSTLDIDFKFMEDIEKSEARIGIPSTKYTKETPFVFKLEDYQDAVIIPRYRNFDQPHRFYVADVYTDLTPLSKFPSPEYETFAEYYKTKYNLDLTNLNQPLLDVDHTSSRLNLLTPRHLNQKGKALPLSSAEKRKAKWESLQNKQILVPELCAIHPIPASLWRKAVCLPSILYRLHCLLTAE
Kind of data set: EMSA; EMSA: 20 mM Tris-HCl pH 7.4, 100 mM KCl, 30 min on ice; 5% or 10% native PAGE at 4 C in 1x TBE; G-rich oligos folded in 50 mM KCl. The note with it: protein: recombinant, tags: N-terminal 6xHis (pMCSG7), label: 5'-32P. A general note: Mobility shift assays separate free from complexed probe on a gel.

Data set [1] concerns the target T2, hDicer (Homo sapiens, UniProt Q9UPY3 1-1922). Description: EMSA; 250 nM hDicer; EMSA: 20 mM Tris-HCl pH 7.4, 100 mM KCl, 30 min on ice; 5% or 10% native PAGE at 4 C in 1x TBE; G-rich oligos folded in 50 mM KCl. The note with it: protein: recombinant; label: 5'-32P; G4 dimer of bimolecular G-quadruplexes (PDB 2M18).
The target of data set [2] is T2, hDicer. Kind of data set: EMSA; 100, 250 nM hDicer; EMSA: 20 mM Tris-HCl pH 7.4, 100 mM KCl, 30 min on ice; 5% or 10% native PAGE at 4 C in 1x TBE; G-rich oligos folded in 50 mM KCl. The conditions noted are these: protein: recombinant; label: 5'-32P; G4.

T2 sequence (Q9UPY3 whole entry): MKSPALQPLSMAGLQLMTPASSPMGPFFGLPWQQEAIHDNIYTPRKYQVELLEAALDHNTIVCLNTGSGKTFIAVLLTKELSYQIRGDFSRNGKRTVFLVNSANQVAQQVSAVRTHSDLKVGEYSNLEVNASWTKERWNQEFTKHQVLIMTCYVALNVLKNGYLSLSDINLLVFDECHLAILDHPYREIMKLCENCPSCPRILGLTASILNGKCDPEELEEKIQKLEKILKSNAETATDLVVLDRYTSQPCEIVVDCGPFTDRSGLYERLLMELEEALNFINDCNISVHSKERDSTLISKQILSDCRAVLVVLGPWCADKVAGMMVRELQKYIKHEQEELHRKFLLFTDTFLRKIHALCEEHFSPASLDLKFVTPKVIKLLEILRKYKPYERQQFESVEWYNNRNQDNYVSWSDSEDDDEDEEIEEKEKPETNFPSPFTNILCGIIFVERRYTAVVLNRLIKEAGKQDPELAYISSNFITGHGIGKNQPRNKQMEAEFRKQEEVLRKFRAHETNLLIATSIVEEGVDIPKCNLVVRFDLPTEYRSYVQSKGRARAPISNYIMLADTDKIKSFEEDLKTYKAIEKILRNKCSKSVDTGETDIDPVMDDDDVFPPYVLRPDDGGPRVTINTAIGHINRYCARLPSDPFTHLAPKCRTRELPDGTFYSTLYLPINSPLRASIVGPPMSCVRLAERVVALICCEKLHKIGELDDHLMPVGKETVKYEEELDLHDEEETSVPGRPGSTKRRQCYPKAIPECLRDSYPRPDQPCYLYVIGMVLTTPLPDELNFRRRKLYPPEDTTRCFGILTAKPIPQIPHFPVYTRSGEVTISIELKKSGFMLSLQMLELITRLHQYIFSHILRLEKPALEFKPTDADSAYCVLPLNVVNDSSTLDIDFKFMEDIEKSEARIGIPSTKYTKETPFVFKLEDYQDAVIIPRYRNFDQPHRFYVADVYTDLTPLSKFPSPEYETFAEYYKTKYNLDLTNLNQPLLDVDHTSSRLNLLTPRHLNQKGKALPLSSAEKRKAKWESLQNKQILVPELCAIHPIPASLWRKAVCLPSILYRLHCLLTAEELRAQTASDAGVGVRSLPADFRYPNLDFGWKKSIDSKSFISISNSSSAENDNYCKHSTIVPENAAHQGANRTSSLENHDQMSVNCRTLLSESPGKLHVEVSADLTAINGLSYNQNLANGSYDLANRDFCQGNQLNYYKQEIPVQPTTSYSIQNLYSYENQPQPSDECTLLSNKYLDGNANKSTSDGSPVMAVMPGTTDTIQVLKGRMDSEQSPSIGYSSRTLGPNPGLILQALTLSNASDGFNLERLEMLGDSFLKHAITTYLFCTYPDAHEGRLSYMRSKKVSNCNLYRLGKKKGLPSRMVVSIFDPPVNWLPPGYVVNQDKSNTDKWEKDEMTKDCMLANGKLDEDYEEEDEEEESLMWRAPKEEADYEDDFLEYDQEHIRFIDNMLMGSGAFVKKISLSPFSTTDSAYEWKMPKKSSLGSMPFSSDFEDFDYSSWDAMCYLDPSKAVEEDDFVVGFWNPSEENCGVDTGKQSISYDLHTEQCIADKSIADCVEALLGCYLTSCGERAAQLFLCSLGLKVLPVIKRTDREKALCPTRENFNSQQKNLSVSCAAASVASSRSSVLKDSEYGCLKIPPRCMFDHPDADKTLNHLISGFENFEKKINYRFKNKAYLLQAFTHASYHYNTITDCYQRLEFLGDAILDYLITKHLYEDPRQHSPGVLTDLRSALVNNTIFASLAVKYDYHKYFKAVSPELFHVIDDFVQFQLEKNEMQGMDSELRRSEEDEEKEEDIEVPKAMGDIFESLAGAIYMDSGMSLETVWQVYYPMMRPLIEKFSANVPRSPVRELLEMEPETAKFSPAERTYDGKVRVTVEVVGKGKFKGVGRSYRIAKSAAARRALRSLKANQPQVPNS

One may read the Kd as the equilibrium constant for the complex coming apart. GGGGTTTTGGGG (structured_DNA) [G4T4G4]: the Kd with hDicer PPC cassette (G4 bimolecular, 2 strand copies (PDB 1JPQ)) is about 369 nM. In the case of GGGGUUUUGGGG (structured_RNA) [G4U4G4], the Kd in the data set with hDicer PPC cassette (G4) was about 10 nM.

B1: pre-mir-21 (structured_RNA)
RNA: AGCUUAUCAGACUGAUGUUGACUGUUGAAUCUCAUGGCAACACCAGUCGAUGGGCUGU
As for B1, in the data set with hDicer PPC cassette (hairpin), the Kd was about 205 nM. On to GGGUUAGGGU (structured_RNA) [TER10], for which the binding result with hDicer [1] was “binds”. As for UCGAAGUAUUCCGCGUACGUG (ssRNA) [LIN21], the Kd with hDicer PPC cassette is about 46 nM. GGAGGUUUUGGAGG (structured_RNA) [QU14]: in the data set with hDicer [2], the binding result was “binds”.
